Source: IntAct's records for PubMed 29656893

B1: Shieldin complex subunit 3 (Homo sapiens), Q6ZNX1 (parent)
chain: MTTEVILHYRPCESDPTQLPKIAEKAIQDFPTRPLSRFIPWFPYDGSKLPLRPKRSPPVISEEAAEDVKQYLTISEHDAKSHSYDCTVDLLEFQPSLKKQHLTWSHTLKEQTNSGNLGKQSEKGKQHKRRSWSISLPSNNCTKNVSPLSKKLQDSLKALNLHSLYRARWTIEHTICNSQTLEDIWTKLNQIIRHNELPSCNATIQRHLGQIWVFCDIMYCEYVGSLLKGRLALTGKINLFVHKYGVIFSM

Variants of: B1
Conditions: with md2l2_human MAD2L2, Q9UI95
Chain of md2l2_human MAD2L2, Q9UI95 (Q9UI95 whole entry): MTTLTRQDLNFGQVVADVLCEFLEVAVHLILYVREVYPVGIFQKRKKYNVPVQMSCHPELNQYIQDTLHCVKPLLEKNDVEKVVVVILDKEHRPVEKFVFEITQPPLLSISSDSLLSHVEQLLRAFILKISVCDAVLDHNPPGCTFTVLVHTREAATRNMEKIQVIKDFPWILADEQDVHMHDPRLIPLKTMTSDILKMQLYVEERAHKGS

Variant	effect of a mutation on the interaction
P53A;P58A	disrupting interaction strength
